B1: library; numbered along this chain (parent)
chain: MRKPRAAVGSGHRKQAASQEGRQKHAKNNSQAKPSACDGLARQPEEVVLQASVSSYHLFRDVAEVTAFRGSLLSWYDQEKRDLPWRRRAEDEMDLDRRAYAVWVSEVMLQQTQVATVINYYTGWMQKWPTLQDLASASLEEVNQLWAGLGYYSRGRRLQEGARKVVEELGGHMPRTAETLQQLLPGVGRYTAGAIASIAFGQATGVVDGNVARVLCRVRAIGADPSSTLVSQQLWGLAQQLVDPARPGDFNQAAMELGATVCTPQRPLCSQCPVESLCRARQRVEQEQLLASGSLSGSPDVEECAPNTGQCHLCLPPSEPWDQTLGVVNFPRKASRKPPREESSATCVLEQPGALGAQILLVQRPNSGLLAGLWEFPSVTWEPSEQLQRKALLQELQRWAGPLPATHLRHLGEVVHTFSHIKLTYQVYGLALEGQTPVTTVPPGARWLTQEEFHTAAVSTAMKKVFRVYQGQQPGTCMGSKRSQVSSPCSRKKPRMGQQVLDNFFRSHISTDAHSLNSAAQ

The variants in this series derive from B1. As to the kind of experiment: 8OG:A repair function score (normalized; synonymous = 0, nonsense = -1) (normalized log-likelihood score); higher = more repair activity (WT-like). The settings on record: with 8OG:A DNA repair reporter (GFP) in HEK-293 MUTYH KO cells. As for the experimental part:
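Saturation mutagenesis (NNN codon scan) of the MUTYH cDNA (521-aa nuclear isoform NM_001048174.1 / NP_001041639), stably expressed under doxycycline induction in HEK-293 MUTYH knockout cells. Cells were co-transfected with an 8OG:A-bearing GFP repair reporter plus mCherry and sorted 72 h later into GFP+ and GFP− bins, three replicates per tile. The Rosace log2 enrichment (GFP+ vs GFP−) was converted per tile to a normalized function score with synonymous variants centered at 0 and nonsense variants (codons 1-471) at -1; low-abundance variants were removed.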
With MRKPRAAVGSGHRKQAASQEGRQKHAKNNSQAKPSACDGLARQPEEVVLQASVSSYHLFRDVAEVTAFRGSLLSWYDQEKRDLPWRRRAEDEMDLDFRAYAVWVSEVMLQQTQVATVINYYTGWMQKWPTLQDLASASLEEVNQLWAGLGYYSRGRRLQEGARKVVEELGGHMPRTAETLQQLLPGVGRYTAGAIASIAFGQATGVVDGNVARVLCRVRAIGADPSSTLVSQQLWGLAQQLVDPARPGDFNQAAMELGATVCTPQRPLCSQCPVESLCRARQRVEQEQLLASGSLSGSPDVEECAPNTGQCHLCLPPSEPWDQTLGVVNFPRKASRKPPREESSATCVLEQPGALGAQILLVQRPNSGLLAGLWEFPSVTWEPSEQLQRKALLQELQRWAGPLPATHLRHLGEVVHTFSHIKLTYQVYGLALEGQTPVTTVPPGARWLTQEEFHTAAVSTAMKKVFRVYQGQQPGTCMGSKRSQVSSPCSRKKPRMGQQVLDNFFRSHISTDAHSLNSAAQ [R97F], the “8OG:A repair function score” value is -0.0465.
As for MRKPRAAVGSGHRKQAASQEGRQKHAKNNSQAKPSACDGLARQPEEVVLQASVSSYHLFRDVAEVTAFRGSLLSWYDQEKRDLPWRRRAEDEMDLSRRAYAVWVSEVMLQQTQVATVINYYTGWMQKWPTLQDLASASLEEVNQLWAGLGYYSRGRRLQEGARKVVEELGGHMPRTAETLQQLLPGVGRYTAGAIASIAFGQATGVVDGNVARVLCRVRAIGADPSSTLVSQQLWGLAQQLVDPARPGDFNQAAMELGATVCTPQRPLCSQCPVESLCRARQRVEQEQLLASGSLSGSPDVEECAPNTGQCHLCLPPSEPWDQTLGVVNFPRKASRKPPREESSATCVLEQPGALGAQILLVQRPNSGLLAGLWEFPSVTWEPSEQLQRKALLQELQRWAGPLPATHLRHLGEVVHTFSHIKLTYQVYGLALEGQTPVTTVPPGARWLTQEEFHTAAVSTAMKKVFRVYQGQQPGTCMGSKRSQVSSPCSRKKPRMGQQVLDNFFRSHISTDAHSLNSAAQ [D96S], the figure is -0.15; as for MRKPRAAVGSGHRKQAASQEGRQKHAKNNSQAKPSACDGLARQPEEVVLQASVSSYHLFRDVAEVTAFRGSLLSWYDQEKRDLPWRRRAEDEMDLTRRAYAVWVSEVMLQQTQVATVINYYTGWMQKWPTLQDLASASLEEVNQLWAGLGYYSRGRRLQEGARKVVEELGGHMPRTAETLQQLLPGVGRYTAGAIASIAFGQATGVVDGNVARVLCRVRAIGADPSSTLVSQQLWGLAQQLVDPARPGDFNQAAMELGATVCTPQRPLCSQCPVESLCRARQRVEQEQLLASGSLSGSPDVEECAPNTGQCHLCLPPSEPWDQTLGVVNFPRKASRKPPREESSATCVLEQPGALGAQILLVQRPNSGLLAGLWEFPSVTWEPSEQLQRKALLQELQRWAGPLPATHLRHLGEVVHTFSHIKLTYQVYGLALEGQTPVTTVPPGARWLTQEEFHTAAVSTAMKKVFRVYQGQQPGTCMGSKRSQVSSPCSRKKPRMGQQVLDNFFRSHISTDAHSLNSAAQ [D96T], -1.12; as for MRKPRAAVGSGHRKQAASQEGRQKHAKNNSQAKPSACDGLARQPEEVVLQASVSSYHLFRDVAEVTAFRGSLLSWYDQEKRDLPWRRRAEDEMDLVRRAYAVWVSEVMLQQTQVATVINYYTGWMQKWPTLQDLASASLEEVNQLWAGLGYYSRGRRLQEGARKVVEELGGHMPRTAETLQQLLPGVGRYTAGAIASIAFGQATGVVDGNVARVLCRVRAIGADPSSTLVSQQLWGLAQQLVDPARPGDFNQAAMELGATVCTPQRPLCSQCPVESLCRARQRVEQEQLLASGSLSGSPDVEECAPNTGQCHLCLPPSEPWDQTLGVVNFPRKASRKPPREESSATCVLEQPGALGAQILLVQRPNSGLLAGLWEFPSVTWEPSEQLQRKALLQELQRWAGPLPATHLRHLGEVVHTFSHIKLTYQVYGLALEGQTPVTTVPPGARWLTQEEFHTAAVSTAMKKVFRVYQGQQPGTCMGSKRSQVSSPCSRKKPRMGQQVLDNFFRSHISTDAHSLNSAAQ [D96V], -0.431.
As for MRKPRAAVGSGHRKQAASQEGRQKHAKNNSQAKPSACDGLARQPEEVVLQASVSSYHLFRDVAEVTAFRGSLLSWYDQEKRDLPWRRRAEDEMDLYRRAYAVWVSEVMLQQTQVATVINYYTGWMQKWPTLQDLASASLEEVNQLWAGLGYYSRGRRLQEGARKVVEELGGHMPRTAETLQQLLPGVGRYTAGAIASIAFGQATGVVDGNVARVLCRVRAIGADPSSTLVSQQLWGLAQQLVDPARPGDFNQAAMELGATVCTPQRPLCSQCPVESLCRARQRVEQEQLLASGSLSGSPDVEECAPNTGQCHLCLPPSEPWDQTLGVVNFPRKASRKPPREESSATCVLEQPGALGAQILLVQRPNSGLLAGLWEFPSVTWEPSEQLQRKALLQELQRWAGPLPATHLRHLGEVVHTFSHIKLTYQVYGLALEGQTPVTTVPPGARWLTQEEFHTAAVSTAMKKVFRVYQGQQPGTCMGSKRSQVSSPCSRKKPRMGQQVLDNFFRSHISTDAHSLNSAAQ [D96Y], the figure is -0.308.
Regarding MRKPRAAVGSGHRKQAASQEGRQKHAKNNSQAKPSACDGLARQPEEVVLQASVSSYHLFRDVAEVTAFRGSLLSWYDQEKRDLPWRRRAEDEMDLWRRAYAVWVSEVMLQQTQVATVINYYTGWMQKWPTLQDLASASLEEVNQLWAGLGYYSRGRRLQEGARKVVEELGGHMPRTAETLQQLLPGVGRYTAGAIASIAFGQATGVVDGNVARVLCRVRAIGADPSSTLVSQQLWGLAQQLVDPARPGDFNQAAMELGATVCTPQRPLCSQCPVESLCRARQRVEQEQLLASGSLSGSPDVEECAPNTGQCHLCLPPSEPWDQTLGVVNFPRKASRKPPREESSATCVLEQPGALGAQILLVQRPNSGLLAGLWEFPSVTWEPSEQLQRKALLQELQRWAGPLPATHLRHLGEVVHTFSHIKLTYQVYGLALEGQTPVTTVPPGARWLTQEEFHTAAVSTAMKKVFRVYQGQQPGTCMGSKRSQVSSPCSRKKPRMGQQVLDNFFRSHISTDAHSLNSAAQ [D96W], the “8OG:A repair function score” value was -0.378.
